# In patent US20030177526A1 (PLANT HEALTH CARE, published 2003):
# T1: GAL4 activation domain-AtHrBP1p fusion (longest 1 kb cDNA insert in pGAD 10) (yeast; Arabidopsis thaliana, UniProt Q9LW57 1-284)
# T1 construct: Yeast two-hybrid prey; also called AtHrBP1-AD fusion prey
# T1 sequence: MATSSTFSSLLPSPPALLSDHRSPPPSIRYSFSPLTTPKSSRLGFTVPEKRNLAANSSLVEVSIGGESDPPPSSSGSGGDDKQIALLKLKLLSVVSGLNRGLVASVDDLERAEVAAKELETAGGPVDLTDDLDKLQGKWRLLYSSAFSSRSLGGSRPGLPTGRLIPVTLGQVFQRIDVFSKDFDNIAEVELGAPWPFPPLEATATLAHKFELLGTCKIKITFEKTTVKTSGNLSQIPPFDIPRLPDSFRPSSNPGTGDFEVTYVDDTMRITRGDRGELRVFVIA
# T2: GAL4 activation domain-harpin fusion (hrpN in prey vector pGAD GH) (yeast; Erwinia amylovora, UniProt Q01099 1-403)
# T2 construct: range 1-403; also called hrpN-pGAD GH
# T2 sequence: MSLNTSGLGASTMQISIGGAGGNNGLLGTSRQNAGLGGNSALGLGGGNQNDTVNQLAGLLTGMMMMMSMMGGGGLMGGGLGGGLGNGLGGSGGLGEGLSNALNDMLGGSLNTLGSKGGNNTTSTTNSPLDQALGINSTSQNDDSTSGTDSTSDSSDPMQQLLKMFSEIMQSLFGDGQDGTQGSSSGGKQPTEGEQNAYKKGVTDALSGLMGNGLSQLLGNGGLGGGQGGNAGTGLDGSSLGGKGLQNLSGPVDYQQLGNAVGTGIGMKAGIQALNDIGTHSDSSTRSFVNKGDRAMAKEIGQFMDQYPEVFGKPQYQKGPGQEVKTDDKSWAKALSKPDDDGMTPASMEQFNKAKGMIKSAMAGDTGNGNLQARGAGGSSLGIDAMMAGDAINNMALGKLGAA
# T3: LexA-AtHrBP1p fusion (AtHrBP1 in bait vector pVJL11) (Arabidopsis thaliana, UniProt Q9LW57 1-284)
# T3 construct: Yeast two-hybrid bait, opposite orientation; also called AtHrBP1-pVJL11; AtHrBP1p fused with the DNA-BD; not shown: prokaryotic LexA protein (DNA-BD encoded in bait vector pVJL11)
# T3 sequence: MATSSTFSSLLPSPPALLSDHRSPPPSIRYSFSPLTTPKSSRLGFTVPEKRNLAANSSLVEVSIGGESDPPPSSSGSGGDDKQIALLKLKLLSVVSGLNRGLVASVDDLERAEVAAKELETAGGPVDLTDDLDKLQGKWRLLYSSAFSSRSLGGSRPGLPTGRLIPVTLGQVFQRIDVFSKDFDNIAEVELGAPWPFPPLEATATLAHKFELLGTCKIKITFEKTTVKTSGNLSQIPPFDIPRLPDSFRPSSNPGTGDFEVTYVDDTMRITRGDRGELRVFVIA
# T4: LexA-harpin fusion (HrpN of Erwinia amylovora in bait vector pVJL11) (Erwinia amylovora, UniProt Q01099 1-403)
# T4 construct: range 1-403; also called HrpN-pVJL11; lexA-harpin fusion protein; not shown: prokaryotic LexA protein (DNA-BD encoded in bait vector pVJL11)
# T4 sequence: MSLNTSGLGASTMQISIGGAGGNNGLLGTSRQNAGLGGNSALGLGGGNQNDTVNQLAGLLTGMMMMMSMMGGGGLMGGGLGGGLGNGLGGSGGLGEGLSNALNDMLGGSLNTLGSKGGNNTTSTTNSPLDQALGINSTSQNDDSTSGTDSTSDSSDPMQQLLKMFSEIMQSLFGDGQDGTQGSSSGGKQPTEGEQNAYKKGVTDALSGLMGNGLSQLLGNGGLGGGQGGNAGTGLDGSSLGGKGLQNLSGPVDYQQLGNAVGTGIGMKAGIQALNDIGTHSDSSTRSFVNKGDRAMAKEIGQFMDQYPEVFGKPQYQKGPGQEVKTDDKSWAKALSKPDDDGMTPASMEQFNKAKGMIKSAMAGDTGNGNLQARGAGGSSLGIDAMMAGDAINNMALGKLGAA
# T5: LexA fused to harpin 210-403 amino acids (Erwinia amylovora, UniProt Q01099 210-403)
# T5 construct: range 210-403; not shown: prokaryotic LexA protein (bait vector)
# T5 sequence: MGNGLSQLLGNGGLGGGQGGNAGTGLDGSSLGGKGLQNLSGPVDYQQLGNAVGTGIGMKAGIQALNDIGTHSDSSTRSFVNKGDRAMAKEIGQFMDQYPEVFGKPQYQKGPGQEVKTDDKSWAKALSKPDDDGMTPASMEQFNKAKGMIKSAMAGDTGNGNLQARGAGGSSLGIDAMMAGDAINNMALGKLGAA
# T6: LexA fused to harpin 137-180 amino acids (Erwinia amylovora, UniProt Q01099 137-180)
# T6 construct: also called harpin fragment that contains the second HR domain; not shown: prokaryotic LexA protein (bait vector)
# T6 chain (looked up): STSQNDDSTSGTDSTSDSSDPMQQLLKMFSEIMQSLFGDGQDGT
# B1: LexA alone (empty bait vector pVJL11) (other)
# chain: MKALTARQQEVFDLIRDHISQTGMPPTRAEIAQRLGFRSPNAAEEHLKALARKGVIEIVSGASRGIRLLQEEEEGLPLVGRVAAGEPLLAQQHIEGHYQVDPSLFKPNADFLLRVSGMSMKDIGIMDGDLLAVHKTQDVRNGQVVVARIDDEVTVKRLKKQGNKVELLPENSEFKPIVVDLRQQSFTIEGLAVGVIRNGDWL
# notes: Control
# Key:
# [1] = target: T1, GAL4 activation domain-AtHrBP1p fusion …; assay: yeast two-hybrid, lacZ and HIS3 reporters
# [2] = target: T2, GAL4 activation domain-harpin fusion …; assay: yeast two-hybrid, lacZ and HIS3 reporters
# [3] = target: T3, LexA-AtHrBP1p fusion (AtHrBP1 in bait …); assay: yeast two-hybrid, lacZ and HIS3 reporters
# [4] = target: T4, LexA-harpin fusion (HrpN of Erwinia …); assay: yeast two-hybrid, lacZ and HIS3 reporters
# [5] = target: B1; assay: yeast two-hybrid, lacZ and HIS3 reporters
# [6] = target: T5, LexA fused to harpin 210-403 amino acids; assay: yeast two-hybrid, lacZ and HIS3 reporters
# [7] = target: T4, LexA-harpin fusion (HrpN of Erwinia …); assay: yeast two-hybrid, harpin as bait
# [8] = target: T6, LexA fused to harpin 137-180 amino acids; assay: yeast two-hybrid, harpin fragment as bait
binder,measurement,setting,value
B1,binding result,[1],no binding
same,binding result,[2],no binding
"GAL4 activation domain alone (empty prey vector pGAD GH) (other, Control) ANFNQSGNIADSSLSFTFTNSSNGPNLITTQTNSQALSQPIASSNVHDNFMNNEITASKIDDGNNSKPLSPGWTDQTAYNAFGITTGMFNTTTMDDVYNYLFDDEDTPPNPKKE",binding result,[3],no binding
same,binding result,[4],no binding
"GAL4 activation domain-rice HrBP1p (R6p) fusion (receptor, Partial cDNA clone from a yeast two-hybrid screen with harpin as bait; not full length) VAALKVKLLSAVSGLNRGLAGSQEDLDRADAAARELEAAAGGGPVDLERDVDKLQGRWRLVYSSAFSSRTLGGSRPGPPTGRLLPITLGQVFQRIDVVSKDFDNIVDVELGAPWPLPPVELTATLAHKFEIIGTSSIKITFDKTTVKTKGNLSQLPPLEVPRIPDNLRPPSNTGSGEFEVTYLDGDTRITRGDRGELRVFVIS",binding result,[5],no binding
same,binding result,[6],no binding
same,binding result,[7],binds
same,binding result,[8],binds
